The record followed here is patent US20250136720A1 (Boehringer Ingelheim, published 2025).

The experiment has as its target T1, Human CD137 on Jurkat cells (human, UniProt Q07011 24-255).
T1 construct: whole, on cells; also called full-length human CD137-expressing Jurkat cell line; NF-kB-Luc2/4-1BB Jurkat
The experiment can be described thus: flow cytometry, Jurkat cells.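 Note: binding of antibody-containing supernatants to NF-kB-Luc2/4-1BB Jurkat cells, detected by flow cytometry with a PE-labelled anti-human IgG-Fc secondary antibody.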

Substitutions are numbered along the chain they refer to. Names and notes keep the numbering of the source.

Procedure: Briefly, HTP supernatants containing recombinant IgG1 (KO) antibodies, were assayed by flow cytometry for binding to the NF-kB-Luc2/4-1BB Jurkat cell line. […] The cells were washed x3 with staining buffer. A Goat F(ab′)2 anti-human IgG-Fc PE secondary antibody was added to the cells and the plate was incubated for 30 min at 4° C. The cells were wash ×3 with staining buffer.

B1: CD137 #A41 (antibody, human IgG1, V domains shown)
VH: QVQLQESGPGLVKPSETLSLNCTVSGGSISNYYWSWIRQPAGKGLEWIGRIYTSGNTNYNPSLKSRVTMSVDTSKNQFSLKLTSVTAADTAVYYCARDGNWNYADAFDIWGQGTMVTVSS
VL: DIQMTQSPSSVSASVGDRVTITCRASQGISSWLAWFQQIPGKAPKLLIYTASGLQSGVPSRFSGSGSGTDFTLTISSLQPEDFATYYCQQTNSFPFTFGPGTKVDIK
notes: human IgG1 KO (L234A/L235A)/kappa chimeric IgG
For B1, the binding result is listed as “binds”.

B2: CD137 #B3 (antibody, human IgG1, V domains shown)
VH: DVQLVESGGDLVQPGGSRKLSCAASGFTFSSFGMHWVRQAPERGLEWVAYISSGSSTIYYADTVKGRFIISRDNPKNTLFLQMTSLRSEDTAMYYCARDWVDYWGQGTSVTVSS
VL: QIVLTQSPAIMSASPGEKVTITCSASSSVNYIHWFQQKPGTSPKLWIYSTSNLASGVPARFSGRGSGTSYSLTISRMEAEDAATYYCLQGSSYPWTFGGGTKLEIK
notes: as for B1
As to B2, the binding result is recorded as “binds”.

B3: CD137 #A45 (antibody, human IgG1, V domains shown)
VH: QVQLVQSGAEVKKPGASVKVSCKASGYIFTNYPMHWVRQAPGQRLEWMGWSNAGIGNTKYSQDFQGRVTITRDTSANTSYMELSSLRSEDMAVYYCAREGVTGAFDYWGQGTLVTVSS
VL: DIVMTQSPLSLPVTPGEPASISCRSSQSLLHSNGFNYLDWYLQKPGQSPQLLIFLGSIRASGVPDRFSGSESGTDFTLKISRVEADDVGIYYCMQPLQIPYTFGQGTKLEIK
notes: as for B1
Regarding B3, the binding result is recorded as “binds”.

B4: CD137 #A57 (antibody, human IgG1, V domains shown)
VH: B3 VH with A24T, I28T, N31S, I55N, D63E, I70L, N77S, S79A, Y80F, V101L
VL: not shown
notes: as for B1
Turning to B4, the binding result is “binds”.

B5: CD137 #A46 (antibody, human IgG1, V domains shown)
VH: B3 VH with V5A, I28T, T30S, N31S, Y32F, D63E, N77S, S79A, V101L
VL: DIVMTQSPLSLPVTPGEPASISCRSSQSLLHSNGYNYLGWHLQKPGQSPQLLIYLGSYRASGVPDRFSGSGSGTDFTLKISRVEAEDVGVYYCMQPLQIPLTFGGGTKVEIK
notes: as for B1
As for B5, the binding result is “binds”.

B6: CD137 #B10 (antibody, human IgG1, V domains shown)
VH: B3 VH with I28T, I55S, T69S, N77S, S79A, R87K, V93I, T102A, Y107I, L113V
VL: B3 VL with S28R, D39G, F54Y, I58H, E71G, D86E, I90V
notes: as for B1
As for B6, the binding result was “binds”.

B7: CD137 #B9 (antibody, human IgG1, V domains shown)
VH: QVQLVQSGAEVKKPGASVKVSCKASGYTLTNFPMHWVRQAPGQRLEWMGWTNAGNGNTKYSQELQGRVTMTRDTSASIAYMELSSLRSEDMGVYYCAREGLTGAFDYWGQGTLVTVSS
VL: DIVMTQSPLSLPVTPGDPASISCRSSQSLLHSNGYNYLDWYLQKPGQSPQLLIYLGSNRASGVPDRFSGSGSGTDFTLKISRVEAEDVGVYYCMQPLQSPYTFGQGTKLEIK
notes: as for B1
As for B7, the binding result is “binds”.

B8: CD137 #A44 (antibody, V domains shown)
VH: QVQLVQSGAEVKKPGASVKVSCKASGYTFTNYPIHWVRQAPGQRLEWMGWSNAGNGNTKYSPEFQDRVTITRDTSASTVYMELSSLRSEDMSVYYCAREGVTGAFDIWGQGTMVTVSS
VL: not shown
notes: as for B1
Turning to B8, the binding result is on record as “binds”.

B9: CD137 #B12 (antibody, human IgG1, V domains shown)
VH: B8 VH with N31T, I34M, N55I, P62Q, V68I, T71S, S92A, T102A, A104G
VL: B3 VL with F35Y, D39N, F54Y, D86E, I90V
notes: as for B1
Regarding B9, the binding result is on record as “binds”.

B10: CD137 #B30 (antibody, human IgG1, V domains shown)
VH: QVQLQQSGPQLIRPGASVKISCKASGYSFTGYWIHWVKQRPGQGLEWIGMIDPSDSETRLNQKFKDKATLTVDKSSTTAYMQLSSPTSEDSAVFYCARYRNYGYDGFAHWGQGTLVTVSA
VL: DIVMTQSPSSLTVTAGEKVTMSCKSSQSLLNSGNEKNYLAWYQQKPGQPPKLLIYWASTRESGVPDRFTGSGSGTDFTLTISSVQTEDLAVYHCQNDYSLPLTFGAGTKLELK
notes: as for B1
On to B10, for which the binding result was “binds”.
